Assay results reported in publication PMC11500415, “Chemical inhibition of stomatal differentiation by perturbation of the master-regulatory bHLH heterodimer via an ACT-Like domain” (Nature Communications, 2024).
Where a chain is given by its changes, count along the chain named. Names may count otherwise. “And” between values parts separate entries of the source, which are not always exact repeats. Equal entries are not always repeated.

Experiments:
[1] = test system: Commelina benghalensis stomatal opening induced by light; test: Measurement of stomatal opening; format: in vivo; conditions: leaf discs 1-6
Procedure: The experiments were performed as described previously[30],[68]. Briefly, Stomidazolone or ABA were added to a multi-well plate with basal buffer [5 mM MES/bistrispropane (pH 6.5), 50 mM KCl, and 0.1 mM CaCl2] to be diluted to a final concentration of 50 or 20 µM, respectively. C. benghalensis plants were incubated in the dark overnight; then, 4 mm diameter leaf discs were excised from fully expanded leaves using a hole punch (Biopsy Punch, Kai Medical). Samples were immersed in a basal buffer containing compounds for 30 min before being exposed to light (150 µmol m^−2 s^−1 red light and 50 µmol m^−2 s^−1 blue light) for 3 h. The stomatal apertures were observed using a stereoscopic microscope (BX43; Olympus). The microscopic images were acquired with a charge-coupled device (CCD) camera (DP27; Olympus), followed by autofocus image processing using cellSens standard software (Olympus). Measurement of stomatal apertures of C. benghalensis was performed by using an automation program, DeepStomata[69].

[2] = test system: Arabidopsis wild-type (WT) seedlings; test: Stomatal development bioassay, seedlings in liquid culture; format: in vivo; conditions: 50 μM
Procedure: Arabidopsis accession Columbia (Col-0) was used as wild-type. […] Their genotype and transcript reduction were confirmed. The presence of transgenes/mutant alleles were confirmed by genotyping. For liquid culture with Stomidazolone (AYSJ929, compound 3), the analogs (AYSJ1059 (compound 5) and AYSJ1061 (compound 6)), degraded compound lzx103 (compound 4), and SIM3* (compound 7), all compounds were dissolved in dimethyl sulfoxide (DMSO, Molecular biology grade, Fujifilm Wako, Japan 046-21981), Col-0 seeds were sown in 96-well plates (TL5003; True Line) containing 95 μL of 1/2 MS media containing 0.5% sucrose with rotary shaking at 140 rpm under continuous light at 22 °C. Five μL of compounds were dissolved in DMSO at 10 mM and diluted with liquid 1/2 MS media to 1 mM and added on 1-day-old seedlings (final concentration, 50 μM). Seedlings were incubated for 8 days, and at day 9 seedling abaxial cotyledons were observed through confocal microscopy. For liquid culture of scrm-D_S343 and scrm-D_S423, 1/2 MS liquid media without sucrose was used. For the solid culture, 0, 20, 50 or 100 μM Stomidazolone were solidified with low-melting agarose (5805S, PrimeGelTM Agarose LMT 1-20 K, TAKARA Bio). Briefly, 1/2 MS salt, 0.5% sucrose, and 0.8% low melting agarose were mixed in water and autoclaved. After cooling the medium at around 30 °C, Stomidazolone (500x, dissolved in DMSO) was added and poured into 90 mm petri dishes (Asnol Petri Dish JP φ90 x 15 mm, 3-1491-01, AS ONE). Col-0 seeds were sown on Stomidazolone-containing 1/2 MS agarose media and grown under continuous light for 9 days.
For confocal microscopy, cell peripheries of seedlings were visualized with propidium iodide (Sigma, P4170). Images were acquired using LSM800 or LSM700 (Zeiss) using a 20x lens. The GFP, YFP reporter and PI signals were detected with excitation at 488 nm and an emission filter of 410 to 546 nm, at 488 nm and an emission filter of 410 to 546 nm, and with excitation at 561 nm and 582–617 nm emission range, respectively. Raw data were collected with 1024 × 1024 pixel images. For qualitative image presentation, Adobe Photoshop CC was used to trim and uniformly adjust the contrast/brightness.
For quantitative analysis of the abaxial leaf epidermis, confocal images were taken on the days after germination as indicated in the Figure legends. Preparation of images was done as described previously[32],[70]. For counting epidermal cell types, stomatal density, stomatal precursor cells (meristemoids), total stomata-lineage cells (stomata and meristemoids) were calculated by counting cell types in an area of 0.4 mm^2 (0.63 mm × 0.63 mm) and plotted as per mm^2. A series of Z-stack confocal images was obtained to obtain images covering the epidermis and capturing GFP/YFP signal from the reporter lines. The area and the number of epidermal cells were quantified by using FIJI-ImageJ. Statistical analyses were performed using R ver. 4.0.2. Sample sizes (n) are indicated and defined in each legend. For the multiple sample comparison, 1-way ANOVA was performed followed by a post hoc Tukey HSD test. For the two-sample comparison, Student’s T-test was performed. Graphs were generated using R ggplot2 package. For all boxplots, each box represents IQR (interquartile range), in which top, middle line, and bottom indicating 75, 50, and 25 percentiles, respectively, and the bar representing maximum to minimal values. Each magenta dot represents jittered individual data point. The datapoints that go beyond the bar are outliers, which are indicated as black dots. If the data point is greater than Q3 + 1.5*IQR (above the third quartile is greater than 1.5 times of the interquartile range) or less than Q1 − 1.5*IQR, that data point is classified as outlier. The color of Boxplot graph was based on ColorBrewer.org. The value of n, the number of each experiment or samples, the means of error bars, and how statistical significance was defined are indicated in a relevant figure legend. […]

[3] = molecular target: T1, SCREAM (SCRM), recombinant full-length protein (1-494) (A. thaliana, UniProt Q9LSE2 1-494); test: BLI; SCRM with MUTE in the presence of AYSJ1059 (5); Octet Red96, anti-GST probes loaded with 500 nM GST-tagged protein; 30 °C; 1x PBS, 2% DMSO, 0.02% Tween20; 1:1 model; KD (SS) from steady-state analysis; conditions: both partners purified
T1 construct: SCRM (ICE1), A. thaliana, residues 1-494; called full-length in the results; The methods describe thrombin removal of GST for all recombinant proteins; For the BLI runs of SCRM with MUTE one partner must have kept GST (anti-GST probes); also called ICE1; source: E. coli BL21, purified (glutathione resin, thrombin digestion, Superdex-200); not shown: GST, N-terminal, cleaved
T1 sequence (looked up): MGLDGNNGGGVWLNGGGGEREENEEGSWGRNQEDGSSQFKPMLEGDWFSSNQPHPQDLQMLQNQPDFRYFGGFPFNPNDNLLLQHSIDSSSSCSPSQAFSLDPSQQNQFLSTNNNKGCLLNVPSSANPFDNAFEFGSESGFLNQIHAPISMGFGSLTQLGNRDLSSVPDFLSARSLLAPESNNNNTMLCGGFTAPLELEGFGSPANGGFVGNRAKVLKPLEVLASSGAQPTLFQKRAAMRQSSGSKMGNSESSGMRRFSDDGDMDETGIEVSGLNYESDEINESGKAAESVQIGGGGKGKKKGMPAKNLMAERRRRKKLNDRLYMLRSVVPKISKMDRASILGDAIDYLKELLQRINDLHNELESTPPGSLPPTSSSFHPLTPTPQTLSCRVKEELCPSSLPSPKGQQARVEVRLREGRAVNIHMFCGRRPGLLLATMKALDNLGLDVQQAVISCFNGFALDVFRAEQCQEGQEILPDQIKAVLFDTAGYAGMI

[4] = molecular target: T1, SCREAM (SCRM), recombinant full-length …; test: BLI; SCRM with MUTE or MUTE mutants, no compound; Octet Red96, anti-GST probes loaded with 500 nM GST-tagged protein; 30 °C; 1x PBS, 2% DMSO, 0.02% Tween20; 1:1 model; KD (SS) from steady-state analysis; conditions: both partners purified
[5] = molecular target: T1, SCREAM (SCRM), recombinant full-length …; test: BLI; SCRM with MUTE or MUTE mutants in the presence of Stomidazolone (3) (MUTE pre-incubated); Octet Red96, anti-GST probes loaded with 500 nM GST-tagged protein; 30 °C; 1x PBS, 2% DMSO, 0.02% Tween20; 1:1 model; KD (SS) from steady-state analysis; conditions: both partners purified
[6] = molecular target: T1, SCREAM (SCRM), recombinant full-length …; test: BLI; SCRM with MUTE in the presence of AYSJ1061 (6); Octet Red96, anti-GST probes loaded with 500 nM GST-tagged protein; 30 °C; 1x PBS, 2% DMSO, 0.02% Tween20; 1:1 model; KD (SS) from steady-state analysis; conditions: both partners purified

Molecule: O=C1C(c2ccccc2)=NC(NS(=O)(=O)c2ccccc2)(c2ccccc2)N1S(=O)(=O)c1ccccc1 (racemic) [AYST929]
- stomatal movement, mean from 2 images from 1 leaf disc ([1]; AYST929 50 µM): 12.3654 and 10.3065 and 11.5398 and 6.9444 and 13.0998 and 7.007

Molecule: CC1=CC(=O)CC(C)(C)C1(O)/C=C/C(C)=C\C(=O)O (centres unmarked) [ABA, reference compound]
- stomatal movement, value per image ([1]; ABA 20 µM, 2 images per leaf disc): 0
- stomatal movement, mean from 2 images from 1 leaf disc ([1]; ABA 20 µM): 0

Molecule: N=C(NS(=O)(=O)c1ccccc1)c1ccccc1 [lzx103]
- effect on stomatal development (in words) ([2]; WT seedlings, liquid culture): did not cause any effects
- Number of stomata per 1 mm2 of cotyledon abaxial epidermis ([2]; WT, single seedlings n=8 (Fig. S3d), listed as Izx-103): 199 per 1 mm2 and 211 per 1 mm2 and 202 per 1 mm2 and 216 per 1 mm2 and 194 per 1 mm2 and 192 per 1 mm2 and 175 per 1 mm2

B1: MUTE, recombinant full-length protein (1-202), as used in BLI with SCRM (natural protein, A. thaliana, UniProt Q9M8K6 1-202, looked up)
chain: MSHIAVERNRRRQMNEHLKSLRSLTPCFYIKRGDQASIIGGVIEFIKELQQLVQVLESKKRRKTLNRPSFPYDHQTIEPSSLGAATTRVPFSRIENVMTTSTFKEVGACCNSPHANVEAKISGSNVVLRVVSRRIVGQLVKIISVLEKLSFQVLHLNISSMEETVLYFFVVKIGLECHLSLEELTLEVQKSFVSDEVIVSTN
notes: BLI probes were anti-GST and loaded with 500 nM GST-tagged protein; source: E. coli BL21, purified (glutathione resin)
- Kd [3]: 8.8 ± 0.6 nM
- koff [3]: 0.000188 s⁻¹
- kon [3]: 21300 M⁻¹ s⁻¹
- Kd [4]: 6.8 ± 0.5 nM
- koff [4]: 0.000147 s⁻¹
- kon [4]: 24200 M⁻¹ s⁻¹
- Kd [5]: 755 ± 9.5 nM
- koff [5]: 0.00859 s⁻¹
- kon [5]: 11400 M⁻¹ s⁻¹
- Kd [6]: 12.8 ± 0.8 nM
- koff [6]: 0.000234 s⁻¹
- kon [6]: 18200 M⁻¹ s⁻¹

B2: MUTE_E162A_E163A, recombinant (natural protein, A. thaliana, UniProt Q9M8K6 1-202, looked up)
chain: B1 chain with E162A, E163A
notes: MUTE, A. thaliana, with E162A and E163A; source: E. coli BL21, purified (glutathione resin)
- Kd [4]: 11.5 ± 2.6 nM
- koff [4]: 0.000334 s⁻¹
- kon [4]: 29000 M⁻¹ s⁻¹
- Kd [5]: 30.5 ± 4.8 nM
- koff [5]: 0.000634 s⁻¹
- kon [5]: 20700 M⁻¹ s⁻¹

B3: MUTE_R133A_R134A_E162A_E163A, recombinant (natural protein, A. thaliana, UniProt Q9M8K6 1-202, looked up)
chain: B1 chain with R133A, R134A, E162A, E163A
notes: MUTE, A. thaliana, with R133A, R134A, E162A and E163A; source: E. coli BL21, purified (glutathione resin)
- Kd [4]: 26.5 ± 3.7 nM
- koff [4]: 0.000414 s⁻¹
- kon [4]: 15600 M⁻¹ s⁻¹
- Kd [5]: 96.5 ± 12.8 nM
- koff [5]: 0.000336 s⁻¹
- kon [5]: 3480 M⁻¹ s⁻¹

B4: MUTE_R133A_R134A, recombinant (natural protein, A. thaliana, UniProt Q9M8K6 1-202, looked up)
chain: B1 chain with R133A, R134A
notes: MUTE, A. thaliana, with R133A and R134A; source: E. coli BL21, purified (glutathione resin)
- Kd [4]: 22.5 ± 1.8 nM
- koff [4]: 0.000256 s⁻¹
- kon [4]: 11300 M⁻¹ s⁻¹
- Kd [5]: 62.5 ± 8.2 nM
- koff [5]: 0.000834 s⁻¹
- kon [5]: 13300 M⁻¹ s⁻¹
